# Assay results as given in the DeepSol protein solubility set.
# Assay: soluble on expression in E. coli; label from the status in PepcDB or PDB records
row,Sequence,soluble on expression in E. coli
1,MAHHHHHHMKNIFKYKNRLTFFRKGFSTTNKPKVEIKKTILYDSHKKNNAIFKIQHGFYLPDEYKDITLITSNLHTRTNCSLFDYTYRPILKISGEDKINFIEKYVGSDIKGLWENECRISLLLNDKGGIIDDIMIILREKYLLLYLNIQCKEKVYKYLKDKLLENGKLQVQIEEFTSHSSICIQGSKSSDVLKELIDYNNESVETNLDNCSFMSSTLTKINKIDNCILNRYTCTGEDGFDILIPNKYVNDLYNLILKNELVKPGGLAVQNTLRLESGFCEYGKDINEDITPIESNYKWSLGQRRLKELNFNGAHIIMDQIKNGTKIKRVGILINTNIVPKENTKIYSHENAEQIIGYITSSVFSPVLQKPICMGYVKSEYAHINNLIKVDCLNKLEIAQITKLPFVPLSIYKL,not soluble
2,MAHHHHHHMKPKMRRESAQPCLTCMPAILNKSVCPIHKIYSDNTLLLFMVIDCYNKMCSKKISTRNANDYKKLWNDNKLLICYSHGVLFHMHTRTSKTCFPQNYFSSNNDNCECGVHQVRFKTLKAQVHIIIPAILTGTTIV,not soluble
3,MAHHHHHHMKPYVWPTSDEAPPPSGRRTFPRQFQVNHGTLNLFSPAVPESQQCNTRAAAGSFSITGQRGILHQRNHNKESTATREFPVNGLRRVSAPQRSETPHGIRHIRDAAGAQQHVQVVNITDAYKDPMQMGPRRTGVKCLPQKSESDDVSVALSFAGSRQQLSARVLAAPVGKPSRPSLYPIDYSDQERFAQAVRDHAQKRTRGLAEFYVQLVRDTVGSVTSSTPKPAIVPWSLDQEPTRRVLTLGRCRDQLVALTAMPISLSDLALLLWGAGNGEVANSDSLTSDCDKDASLPLNCRPVPFCDFAAAFGQNSSDVRLARMKV,not soluble
4,MAHHHHHHMKQIDQLIIEEADENTIIPYYLSNLLTNASNPVVFMDVNLGNHFLGKFKFELFQNIVPKTSENFRQFCTGEYKVNNLPVGYKNTTFHRVIKEFMIQGGDFVNYNGSGSLSIYGEIFEDENFDVKHDQEGLLSMANSGPNTNGCQFFITTKKCEWLDGKNVVFGRIIDSDSLILLKKIENVSVTPYIYKPKIPINIVECGEL,not soluble
5,MAHHHHHHMKQRTNVALKRWYASERTKKANPLILISNSHNIHFNLSLENFLLNNYSDLLKHLNGNSIERYDDPVLFLWRNNRSIIIGKNQNIWSECNLENIKEDNVLVARRFTGGGAVYHDLQNLCFTFLNNSLSTDDNFSIILKTLKRHFAIEAKRQGRNDITVNDRKCSGSAFKKMKNGFLHHGTIMVNLEKDVLSRYLTPDKIKYTKHGVSSVNARTINLKEINPKITCQDLCYALIKEFQAFYKNGVPNEGGEASCSATLKVEDYTGGEKIANPPEQVSSNRNANLSEGEKSVANLIDHSSPILKHFNIHYVDTNESITKNPEFLKYLNLLKDWDWCYGKSPKFQNRLCKQFPFGKFEVFFNVSDGMIKDGNVFSDCLDINLVEQLKFIFNNDVRYSKDSVASFLRGLQVENEGSLREVTDWILQEL,not soluble
6,MAHHHHHHMLFPTACPDLIAREHLFNTLLNPVVYRWMWGRLRSCFSDSEVMAYTNNLSCVSHSVVCELVNKYPHLHQHVFAGPVTVLNERKEAAVTAHAEPLMVDPVGWTRALAEVCRRDYDVQFALGERLEDAVTYLKYDVESTRSIRVSKPDPSHPEQRLFASEGYDVVILAAGASTGTMTLPNSRLPVLGLSGLSAVVQQPSGALKDAVWSLFQCRPHRSPAAAASSSSPEVDAPSSHEGVADPLARPAPGTLALLSSHCSPVWLHVAQ,soluble
7,MAHHHHHHMLHCSREEVGELLIDSCKRSVGTSVELDTLLSNKNTSKVAPDATAATIMQVRMMYGKDDSGDLSYAEMTRLVEGLSSSKDLTERILKPFEDDNRHTIAFSEFAKVYSNAVSFKELGYVFQDLAGGQQTISRDTFASFVCDIQDEDWDAETLNEKLALMGCVGIDGITENNFVGYIMSPYFDFAMEKKLTGVYQDMDQIMCCYFISSSHNTYLTGDQLTSKSSAQMYKKGASRRVPVREAICRNGPHGEPIVCHGYTRTSCIAFEECVKMIRQYAFTASAYLVILSLGVHTSVEQQDKMAEILEEGLGSLLFWPPWGSNEKPTMAFSPNNLKNKILVKAKRGDFPAREPRVDKDDDATETDSMASTNNADYLKMKEARRKAGKDEVRVSAKLSAIVSIESSKYQGVKDLSYLKDKQPHHCSSYSERKGKAIVREAHNALVCINDTCLSRVFPAGSRIDSSNYRPLLYWVSGCQMVAINWQSSDTFGWRLNGCIFLDSGCCGYLLKPDYLRPVTCPDVAVPEYLRSLTVEVIWGFALPSAKQARGCRPVCDSFPRGP,not soluble
8,MAHHHHHHMLMVPMKFARAHLRRLHALQPTPTFAIECSLPFLCAWRAMKHRSLAPDDPFGERSTFSDPSDGLFAAWSGVDFNAFADAASSDEVRTAHFGPEWSRFATVGRLSVKIMREQGTPGVASAVSSKGGNKVLPRPPTAEELHSRELQARRKALEGNYATYEQYVMKELGIEDGGNEDEHMEEEMDDATEVANASEESMPLPHFMVERGEGQAHANDTNKQESTNGKPLLRTREGLQVPEPLMQMILDALGEPHGDRHLPRSDPLHWNTEVVILWVRKLEAARFALVSAAGTGEASLLEAPLMEDPSMHEAFRMARTNGKFLLHHTVPNTMFQVMRRWYLRRQEIALTFMKERQEMKNTTSISKDDVNDATFKSALEAGRAKLDELAAKVTPILIQETISQCYPYCH,not soluble
9,MAHHHHHHMLNPTFSLYRKTLQSYPVPPKIRHYDRRWSGSRTNPYNRQYWRVIMNENYSRPSFWVSDFRHRYLMRTGTDYQGQVPSSPQPGLYQGFSDVHKLLANHPKPQRESRHLPVLPMTPRVVFEHANEKRIDTAKKMRRDRRRIEELKTLEFWGWYMKLQRVRGRWCREQGVSSRGVYGPAVDAAELWG,not soluble
10,MAHHHHHHMLQSPKGINILITGTPGTGKTSLAELLAQELGDFKHVEVGKIVKENHFYSEYDNALDTHIVEEDDEDRLLDFMEPMMVNEGNHVVDYHSSELFPRRWFHLVIVLRASTEVLFERLTARRYSEQKRDENMEAEIQGLCEEEARGAYDDSIVIVRENNTLEEMAATVDLIRLRVESLRGNAA,not soluble
11,MAHHHHHHMLRRTSFNFTGRAMISRGSPEWSHRLDLKKGKKTTMMHKLGTSKPNNALQYAQMTLHDLTEWCLAYSPWPLTFGLACCAVEMMHAYASRYDLDRFGIVPRPTPRQAEIIIVSGTVTNKMAPILRNIYVQMVNPKWVISMGSCANGGGYYHFSYAVLRGCERAIPVDFWIPGCPPSAESLVFCLHTLQKKIRWHEIQKYSVRD,not soluble
12,MAHHHHHHMLRRVTCMAASVGRAAAALSVSPVMAQIPSAMRPPSKASTSAVASLLPPCCQPIYQQRRCYASRSGEEKGNADKGTQAAAAAVSTTPGTATAEAVRYFAANEQNADAAARAQGSVKQQEQLSAAAANGGDAATSGIRTIGIKLTEDDELVRAFNNFSKSVNGCTQEEFLIGAKQAYYSLAVVISAFLEHGQPLAGRTESTKMIAAAHEAAKLLDKEFKPESRCDAAATSLASKAEGDGTDDSSSSSSKTKLQESLVRNVVSTIVSLIPVSRHLAESIFKIWLLHKVKQVNLSSIASPADYVLDSKLVIFARLGKARMYFNSDNVGAEVDVTFSNDYLRKLDPASVAGSGAAGSSQMADAAGKVDEDDFDTGMIQVHTDTDANAHRTTAEEHTFVVNKATRTLTPTGSTAASTAAAAAAASTDAARRSGGNSASAGAGGASAADSAKSSGTASRIQVTCVKTTDFLRKSASAATVAATAVRDEAAAKTAAPNESSGEEEEEAHSVYIKVNGNMLPPIPASAHACALLTVDVVVPPERYAYNFEWFYKRIVGYENEYERIAAARVFASNSPKPLASFLDFFMRMVTGKPVEFMFSKAIGRMIGIPDDVSQTPPATRKLMCMYMDQSYKWVLADLVTLAPVMETKLPKA,not soluble
13,MAHHHHHHMLTIRVGNLPVCLCSNLRNTFNPTYAFGVKRNDGTVALLDGKSGHLLLPFDAEGNIIVTPGADYQLVFLSNDSTSSTVHTTQGLGKGGTNKTSHDFELTKALAKDGSIHREKRRLDDGRATSRERFHKGNAHYSVSDSKPTKRRKRDHSVDKDAVVEAEFGSQSINKKERSVKASRKDSNREDSDDPDDIPIFCTLAGKPTPAPISSNHTPTVSPAPKEVYLVDNFDPTTRPAHSEEGALDSSATELISS,soluble
14,MAHHHHHHMLTRSERGMCNGRVPTKGLVGFLSGSSTGTEWRDEYLGVNAIVHGPAEKRIGVPNGVTFQGSWAEWPVGDMGQTVPYYFANNKFTLVATVSIHEVPKEDSSPIPLIGVRMNDTSSTVLFALSYTHDRKWLAIPEDAGGVEDLFGWEPHTTYQAVLRMTLDEWTAFVDQREIDRKSYNENLFDSHRISHFYIGGDSNDQSATDGHVTVTNVMLYNEDLYNNELYEPNASKVNIPSLGVEEHPTGQVTSTEVSVVHESKSEEITASCAELNEDDTDKQEEETASMIRCLQRPLPRLTRDHLFLSLPSQRRAQGMTVQRTMSSFTRAKRPSKPRRMKRINRCNGVQTCSHKTHSQRN,not soluble
15,MAHHHHHHMLTTYNIIWKKEEEDDSLNIEKRNRLFHEHVKEQKNDILSPSEFDLLVNDIEDLLEEQQINETEKLYKVSKSPNEKFNKKYKLSITDLSAQLWCEQQLELVLTTGKRRETEAMRLGIERHEILEKADHLIVNVEVNTREESLGYRLLNSITLLGQLFQTKKAREVWVFGIIRNYVLRGIIDELRIEYDNVTKKEYLIISDTKTRKEKKEPSLAQKRTSAIQVQTYCLILQQLKNGKADFKKLFEIYECDPLFEFTAVDLVKYKNLENLSIELNKLFMKLPKIKEEMEIVYEHEGKEFSRNLIPYFYHSTLYTINILLDYWDGKRSSDVVENSDKWKCKFCDFVKNCVRCPLDY,not soluble
16,MAHHHHHHMLVRRSLSKKRSVIRGRNSRDLRVSSYIRVCTCTYVRNLCCRRLAYYDVCGESWSHARPFSPNSAMDYSLSVFRVLCPFVKTFFLFTLPCLTEGEGRVKSLIRWWEKKTCAEILMSSHAYLGLLRFICDLYTSFKGYVSRWHCPARRTAVLSCLSAAIGADGGVGPWLLLFVRAAVLRVLSLRQHPQTTQGEGRLARLVQPNQSGGHERHQQ,not soluble
17,MAHHHHHHMMRERAAALDDLNALLTVNKDHPQGLALRMSLNTQLGNLVDAHRDGKHLVRVYKALNKPDKSQQTSEKVHRLERYTVRWTALSDLWSQPVGAYTAATNDAVLMRKYRECVDLLARIIHEFSMESVELRLRRAACALAADDNIAATQELKYVTQRSPQNLDAIALNAQALRRLGALDQSMSELRRCLNLDPEYAPCANLHKLIRQQQRMTKNIEKRLQEKKFEAVVQLIAETRAAEPHAPYEEQLAAWHCEALVSLRSTDEGIRVCQALVDRYDGANNPTVFDAHIRLAELHLLDDNIAAAEAALQKAREIRQHDGKVEEMRLKIEKLKRTGPRKDYYKILGLKKTASAQEIRRAYRKLAKSSHPDQLRSKDMTDREREKQEKMFRDVNEAKEVLLDEEKRARYDSGEDVNQPAGQRGEPFFGSHFAGGFPGGFPGGFPGGFPGGFPGGFHQQRDGGVHQQFFFFNREN,not soluble
18,MAHHHHHHMMYTGEIENGQMHGRGCLIYPNKEKYEGDWVYGKRHGHGVYTYADGSKYDGEWVEDKVHGKGTCYYASGNRYSGDWTFGRINGRGTLEYADGDRYDGEWKDGRMHGKGLYYYSNGDRYDGEWKDDKRHGKGTVTYAGPDGSVSEKFDGDWVEGRMQGWGKYYYADGGVYEGEWQDGKMHGKGTYIFPNGNKYEGEWCDDVKQGYGVLTYVNGERYEGYWLDDKAHGTGTLTYLQGDRYTGEWYQGKKHGRGTLAYSNKDTYEGEWRNDSATGRGVLEYANGCRYEGDWLDDRRHGEGQLLLPDGSSYEGGWVNGKKEGRARIILKCGAVFVGTWKDNLIVGQGEFYLSENCDLNNPDY,soluble
